In US20130090249A1 (CENTRE NATIONAL DE LA RECHERCHE SCIENTIFIQUE CNRS, published 2013):

Experiments:
[1] = molecular target: T1, Lingo-1-HA (human, UniProt Q96FE5 42-620); experiment: BRET competition in live HEK-293 cells; the competitor may take the place of either the RLuc or the YFP partner
T1 construct: also called Lingo-HA; HA-tagged whole Lingo-1 protein
T1 sequence: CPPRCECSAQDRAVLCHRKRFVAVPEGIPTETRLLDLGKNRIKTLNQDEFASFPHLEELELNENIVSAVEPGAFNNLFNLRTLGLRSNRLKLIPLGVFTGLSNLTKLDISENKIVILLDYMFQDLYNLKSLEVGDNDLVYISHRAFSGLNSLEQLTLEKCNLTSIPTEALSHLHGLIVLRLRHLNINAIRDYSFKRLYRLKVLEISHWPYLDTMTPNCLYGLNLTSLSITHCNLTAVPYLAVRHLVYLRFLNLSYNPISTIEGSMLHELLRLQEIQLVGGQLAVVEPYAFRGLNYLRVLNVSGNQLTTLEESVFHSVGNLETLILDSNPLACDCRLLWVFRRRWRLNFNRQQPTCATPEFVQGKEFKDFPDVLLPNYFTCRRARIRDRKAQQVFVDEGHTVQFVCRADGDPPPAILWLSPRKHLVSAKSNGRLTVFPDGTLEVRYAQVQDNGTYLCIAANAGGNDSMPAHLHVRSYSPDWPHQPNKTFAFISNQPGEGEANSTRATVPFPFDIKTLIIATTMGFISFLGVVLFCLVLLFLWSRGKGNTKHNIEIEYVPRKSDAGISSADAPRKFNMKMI
Method: (§1) HEK-293 cells were transfected with the Lingo-1-RLuc and Lingo-1-YFP fusion proteins (the donor/acceptor ratio remains constant) and increasing concentrations of the whole Lingo-1 protein (Lingo-1-HA, amino acids 1-620) or the dominant negative thereof (DN-HA, amino acids 1-577) tagged with HA. The BRET measurement was carried out 48 hours after the transfection on live cells.
(§2) The BRET signal obtained between the Lingo-1-RLuc and Lingo-1-YFP proteins is therefore specific and can be modulated. […] In addition, when increasing concentrations of HA-tagged Lingo-1 protein were added (Lingo-1-HA at 0, 200, 400, 800, 1600 and 2600 ng), the BRET signal decreased (FIG. 5b); thereby making it possible to plot inhibition curves.

[2] = molecular target: T2, DN-Lingo-1-HA (human, UniProt Q96FE5 42-577); experiment: as above
T2 construct: Residues 1-577 are counted on the 620-amino-acid human Lingo-1 (NP-116197); Expressed in HEK-293 cells; also called DN-HA; HA-tagged dominant negative of Lingo-1
T2 sequence: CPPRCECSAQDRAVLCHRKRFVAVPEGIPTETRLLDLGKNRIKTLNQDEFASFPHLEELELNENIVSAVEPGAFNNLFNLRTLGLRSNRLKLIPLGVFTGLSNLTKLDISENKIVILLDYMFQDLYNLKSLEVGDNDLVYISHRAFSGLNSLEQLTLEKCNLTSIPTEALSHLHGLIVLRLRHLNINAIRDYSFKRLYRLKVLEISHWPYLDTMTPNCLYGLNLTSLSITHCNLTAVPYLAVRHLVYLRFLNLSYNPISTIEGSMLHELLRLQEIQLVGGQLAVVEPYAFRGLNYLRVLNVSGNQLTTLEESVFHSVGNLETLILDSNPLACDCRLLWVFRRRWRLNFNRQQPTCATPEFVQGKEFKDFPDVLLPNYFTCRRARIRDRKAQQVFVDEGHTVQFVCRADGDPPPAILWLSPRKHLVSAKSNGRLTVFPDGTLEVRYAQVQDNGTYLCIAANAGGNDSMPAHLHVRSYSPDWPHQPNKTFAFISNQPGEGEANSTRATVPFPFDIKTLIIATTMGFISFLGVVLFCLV
Method: as §1, §2

- binding result [1]: binds
- binding result [2]: binds
B1: Lingo-1-RLuc (other)
chain: CPPRCECSAQDRAVLCHRKRFVAVPEGIPTETRLLDLGKNRIKTLNQDEFASFPHLEELELNENIVSAVEPGAFNNLFNLRTLGLRSNRLKLIPLGVFTGLSNLTKLDISENKIVILLDYMFQDLYNLKSLEVGDNDLVYISHRAFSGLNSLEQLTLEKCNLTSIPTEALSHLHGLIVLRLRHLNINAIRDYSFKRLYRLKVLEISHWPYLDTMTPNCLYGLNLTSLSITHCNLTAVPYLAVRHLVYLRFLNLSYNPISTIEGSMLHELLRLQEIQLVGGQLAVVEPYAFRGLNYLRVLNVSGNQLTTLEESVFHSVGNLETLILDSNPLACDCRLLWVFRRRWRLNFNRQQPTCATPEFVQGKEFKDFPDVLLPNYFTCRRARIRDRKAQQVFVDEGHTVQFVCRADGDPPPAILWLSPRKHLVSAKSNGRLTVFPDGTLEVRYAQVQDNGTYLCIAANAGGNDSMPAHLHVRSYSPDWPHQPNKTFAFISNQPGEGEANSTRATVPFPFDIKTLIIATTMGFISFLGVVLFCLVLLFLWSRGKGNTKHNIEIEYVPRKSDAGISSADAPRKFNMKMISRDPPVATMTSKVYDPEQRKRMITGPQWWARCKQMNVLDSFINYYDSEKHAENAVIFLHGNAASSYLWRHVVPHIEPVARCIIPDLIGMGKSGKSGNGSYRLLDHYKYLTAWFELLNLPKKIIFVGHDWGACLAFHYSYEHQDKIKAIVHAESVVDVIESWDEWPDIEEDIALIKSEEGEKMVLENNFFVETMLPSKIMRKLEPEEFAAYLEPFKEKGEVRRPTLSWPREIPLVKGGKPDVVQIVRNYNAYLRASDDLPKMFIESDPGFFSNAIVEGAKKFPNTEFVKVKGLHFSQEDAPDEMGKYIKSFVERVLKNEQ
notes: also called hLingo-1-RLuc
